Measured values from PMC3056768, “Conjugation to the Cell-Penetrating Peptide TAT Potentiates the Photodynamic Effect of Carboxytetramethylrhodamine” (PLoS ONE, 2011).
“Also recorded” adds a separate entry of the source. Where two headings read alike, the source gives them in different places.

Assays:
COS-7 cells = test: Photosensitization of endocytosed peptide; assay type: cell-based, African green monkey; settings: COS-7, 3 µM for 1 h, washed, 560 nm
Procedure: HeLa (human cervical adenocarcinoma), COS-7 (SV40 transformed African green monkey kidney fibroblast-like cell line) were obtained from ATCC. COLO 316 (human ovarian carcinoma) were obtained from Robert Burghardt (Department of Veterinary Integrative Biosciences, Texas A&M University). Cells were cultured in DMEM supplemented with 10% fetal bovine serum (FBS) and maintained at 37°C in a humidified environment with 5% CO2. Cells were plated in 8-well dishes so that the cells were 70% confluent after 24 h, washed 3 times with L-15 media, incubated with 3 to 10 µM peptides at 37°C for 1 h, washed 3 times with L-15, and imaged. Alternatively, cells were incubated in L-15 at 4°C to inhibit the endocytic uptake of peptides. […] Plasma membrane disruption was detected by addition of the cell-impermeable DNA stain SYTOX Blue (5 µM) during or after photosensitization.
TMR-TAT induces cell-death upon light irradiation in HeLa or COS-7 cells. […] Cells were observed using a 10× objective using bright field and fluorescence imaging (CFP filter to detect SYTOX® Blue). […] Cells were observed using a 100× objective using bright field and fluorescence imaging (RFP filter to detect TMR-TAT, pseudocolored red, and CFP filter to detect SYTOX® Blue, pseudo colored blue). […]

HeLa cells [1] = test: Photosensitization of extracellular peptide at 4°C (endocytosis blocked); assay type: cell-based, human; settings: 3 µM, 4°C to block endocytosis, irradiated at 560 nm with compound still in the media
Procedure: HeLa (human cervical adenocarcinoma), COS-7 (SV40 transformed African green monkey kidney fibroblast-like cell line) were obtained from ATCC. COLO 316 (human ovarian carcinoma) were obtained from Robert Burghardt (Department of Veterinary Integrative Biosciences, Texas A&M University). Cells were cultured in DMEM supplemented with 10% fetal bovine serum (FBS) and maintained at 37°C in a humidified environment with 5% CO2. Cells were plated in 8-well dishes so that the cells were 70% confluent after 24 h, washed 3 times with L-15 media, incubated with 3 to 10 µM peptides at 37°C for 1 h, washed 3 times with L-15, and imaged. Alternatively, cells were incubated in L-15 at 4°C to inhibit the endocytic uptake of peptides. In this case, cells were imaged with the peptide still present in solution and the low temperature was maintained for the entire duration of imaging. For photosensitization, cells were exposed to light (λex = 560±20 nm) for the indicated time points. Plasma membrane disruption was detected by addition of the cell-impermeable DNA stain SYTOX Blue (5 µM) during or after photosensitization.
It is therefore possible that the endosomal release observed in the experiments of Figure 1 might be necessary to cause cell death. To investigate whether this is the case, we examined if light-induced cell-death could be observed when the peptides were only localized at the plasma membrane of cells. For these experiments, HeLa cells were first incubated with the peptides (3 µM) at 4°C to block endocytosis. Cells were then irradiated with the peptides still present in the media (the peptide is not retained at the plasma membrane when cells are washed). […] Cells were then washed and observed by fluorescence imaging. […] On the other hand, the membrane damage and cell death obtained after TMR-TAT photosensitization were also observed when hematoporphyrin (HP) or hematoporphyrin derivative (HPD) were used (Fig. 4B). […]

HeLa cells [2] = test: Toxicity in the absence of light (SYTOX green / DAPI); assay type: cell-based, human; settings: concentrations up to 25 µM, 1 h in L-15 at 37°C, washed, additional 4 h, average of 3 experiments
Procedure: Supplementary file pone.0017732.s001.tif: Figure S1 Toxicity of TMR-TAT toward HeLa cells in the absence of light. TMR-TAT was incubated at the concentration indicated with cells for 1 hour in L-15 at 37°C. Cells were washed with fresh L-15 and incubated for an additional 4 h. Cells were then treated with L-15 containing DAPI and SYTOX® green. DAPI stains the nucleus of all cells while SYTOX® green only stains the nucleus of dead cells. Cells were imaged by fluorescence microscopy using the DAPI and FITC filters to detect DAPI and SYTOX® green, respectively. For each experiments, five representative images were acquired using the 20× objective and the percentage of dead cells were calculated from the ratio of cells stained by SYTOX® green divided by the number of cells stained by DAPI. The reported data is the average of 3 experiments (3×5 images, ≥1000 cells/experiments) and the error bar represents the standard deviation. (TIF) Click here for additional data file.

red blood cells (RBCs) = assay type: cell-based
Procedure: Supplementary file pone.0017732.s005.tif: Figure S5 A) Photohemolysis of RBCs with TMR-TAT. Short light exposure tat 560 nm to RBCs incubated with TMR-TAT (3 µM) causes lysis and formation of ghost cells as observed by bright field imaging. Lysis of more than 90% of the cells can be achieved when light exposure is increased. Initially, the ghosts formed appear to have a constant diameter as shown in the images corresponding to exposure at 20 J/cm^2 and 60 J/cm^2. As light exposure is increased, the ghosts shrink to a much smaller diameter (120 J/cm^2 image). This shrinkage was not observed when the ghosts formed by irradiation with 60 J/cm^2 of light were incubated without additional light irradiation (data not shown). […] The RBCs were then spun down at low speed and the supernatant was removed from the pelleted cells. Cells were rapidly washed with cold PBS (4°C) and spun down twice. Images are the bright field and TMR confocal fluorescence images before and after washing of the RBCs. During incubation, the interior of RBCs display a dark contrast when compared to the fluorescent peptide present in solution. After washing the cells, no appreciable TMR fluorescence could be detected. It is important to note that RBCs have a weak autofluorescence signal in the TMR channel. […]

SMILES: CN(C)c1ccc2c(c1)Oc1cc(N(C)C)ccc1C21OC(=O)c2cc(C(=O)NCC(=O)N[C@@H](CCCNC(=N)N)C(=O)N[C@@H](CCCCN)C(=O)N[C@@H](CCCCN)C(=O)N[C@@H](CCCNC(=N)N)C(=O)N[C@@H](CCCNC(=N)N)C(=O)N[C@@H](CCC(N)=O)C(=O)N[C@@H](CCCNC(=N)N)C(=O)N[C@@H](CCCNC(=N)N)C(=O)N[C@@H](CCCNC(=N)N)C(=O)NCC(N)=O)ccc21 [TMR-TAT]
- photo-induced activities (endosomal release, blebbing, SYTOX Blue staining) (COS-7 cells): could be reproduced; also recorded: membrane blebs are formed on the cell surface, and the nuclei of cells are stained by SYTOX® Blue
- light-induced cell death with peptide only extracellular (HeLa cells [1]): dramatic cytoplasmic extrusion, membrane blebbing, shrinkage and cell death
- cytotoxicity in the absence of light (HeLa cells [2]): negligible
- penetration into RBCs (red blood cells (RBCs); 10 µM in PBS for 1 hour, washed with cold PBS, confocal fluorescence): does not penetrate RBCs to a large extent
- penetration into RBCs (red blood cells (RBCs); 1 to 5 µM): do not penetrate RBCs
